Patent US20140271457A1 (AbbVie / Abbott, published 2014)
Residue numbers refer to the chain shown, from its start. Blank lines part the entries; values can stand above or below the binder they belong to.

Biological target: Recombinant Human TNF-α/TNFSF1A (human, UniProt P01375 77-233)
Test: cell-based or functional assay

Sequence of Recombinant Human TNF-α/TNFSF1A (P01375 77-233 limits assumed): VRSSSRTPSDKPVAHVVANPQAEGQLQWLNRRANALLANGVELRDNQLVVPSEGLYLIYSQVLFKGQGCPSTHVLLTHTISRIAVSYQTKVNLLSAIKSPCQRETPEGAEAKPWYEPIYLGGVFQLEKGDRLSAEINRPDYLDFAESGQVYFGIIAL

B4: DVD2689 (bispecific antibody, IgG1)
VH: EVTLRESGPGLVKPTQTLTLTCTLYGFSLSTSDMGVDWIRQPPGKGLEWLAHIWWDDVKRYNPALKSRLTISKDTSKNQVVLKLTSVDPVDTATYYCARTVSSGYIYYAMDYWGQGTLVTVSSASTKGPEVQLVESGGGLVQPGGSLRLSCAASGFTFSNYGVTWVRQAPGKGLEWVSMIWADGSTHYASSVKGRFTISRDNSKNTLYLQMNSLRAEDTAVYYCAREWQHGPVAYWGQGTLVTVSS
VL: DIQMTQSPSSLSASVGDRVTISCRASQDIRNYLNWYQQKPGKAPKLLIFYTSKLHSGVPSRFSGSGSGTDYTLTISSLQPEDIATYYCQQGLTPPLTFGGGTKVEIKRTVAAPDIQMTQSPSSLSASVGDRVTITCRASQLVSSAVAWYQQKPGKAPKLLIYWASARHTGVPSRFSGSGSGTDFTLTISSLQPEDFATYYCQQHYKTPFTFGQGTKLEIKR
- C-Terminal VD huTNFα Neutralization Assay IC50: 0.076 nM

B5: DVD2692 (bispecific antibody, IgG1)
VH: EVTLRESGPGLVKPTQTLTLTCTLYGFSLSTSDMGVDWIRQPPGKGLEWLAHIWWDDVKRYNPALKSRLTISKDTSKNQVVLKLTSVDPVDTATYYCARTVSSGYIYYAMDYWGQGTLVTVSSASTKGPSVFPLAPEVQLVESGGGLVQPGGSLRLSCAASGFTFSNYGVTWVRQAPGKGLEWVSMIWADGSTHYASSVKGRFTISRDNSKNTLYLQMNSLRAEDTAVYYCAREWQHGPVAYWGQGTLVTVSS
VL: B4 VL
- C-Terminal VD huTNFα Neutralization Assay IC50: 0.04 nM

B6: DVD2739 (bispecific antibody, IgG1)
VH: B4 VH with T164E, M179G, S190D, S191T, G194S
VL: B4 VL with R137K, A166T, R167L, K206R
- C-Terminal VD huTNFα Neutralization Assay IC50: 0.517 nM

B7: DVD2741 (bispecific antibody, IgG1)
VH: B4 VH with T164E, M179G, S190D, S191T, G194S
VL: DIQMTQSPSSLSASVGDRVTISCRASQDIRNYLNWYQQKPGKAPKLLIFYTSKLHSGVPSRFSGSGSGTDYTLTISSLQPEDIATYYCQQGLTPPLTFGGGTKVEIKRTVAAPSVFIFPPDIQMTQSPSSLSASVGDRVTITCKASQLVSSAVAWYQQKPGKAPKLLIYWASTLHTGVPSRFSGSGSGTDFTLTISSLQPEDFATYYCQQHYRTPFTFGQGTKLEIKR
- C-Terminal VD huTNFα Neutralization Assay IC50: 0.202 nM

B9: DVD2688 (bispecific antibody, IgG1)
VH: EVTLRESGPGLVKPTQTLTLTCTLYGFSLSTSDMGVDWIRQPPGKGLEWLAHIWWDDVKRYNPALKSRLTISKDTSKNQVVLKLTSVDPVDTATYYCARTVSSGYIYYAMDYWGQGTLVTVSSGGGGSGGGGSEVQLVESGGGLVQPGGSLRLSCAASGFTFSNYGVTWVRQAPGKGLEWVSMIWADGSTHYASSVKGRFTISRDNSKNTLYLQMNSLRAEDTAVYYCAREWQHGPVAYWGQGTLVTVSS
VL: DIQMTQSPSSLSASVGDRVTISCRASQDIRNYLNWYQQKPGKAPKLLIFYTSKLHSGVPSRFSGSGSGTDYTLTISSLQPEDIATYYCQQGLTPPLTFGGGTKVEIKRGGSGGGGSGDIQMTQSPSSLSASVGDRVTITCRASQLVSSAVAWYQQKPGKAPKLLIYWASARHTGVPSRFSGSGSGTDFTLTISSLQPEDFATYYCQQHYKTPFTFGQGTKLEIKR
- C-Terminal VD huTNFα Neutralization Assay IC50: 0.093 nM

B10: DVD2738 (bispecific antibody, IgG1)
VH: B9 VH with T168E, M183G, S194D, S195T, G198S
VL: B9 VL with R141K, A170T, R171L, K210R
- C-Terminal VD huTNFα Neutralization Assay IC50: 0.452 nM

More lines, now with the values ahead:

- N-Terminal VD huTNFα Neutralization Assay IC50: 0.008 nM
B1: DVD2783 (bispecific antibody, IgG1)
VH: EVQLVQSGAEVKKPGASVKVSCKASGYTFANYGIIWVRQAPGQGLEWMGWINTYTGKPTYAQKFQGRVTMTTDTSTSTAYMELSSLRSEDTAVYYCARKLFTTMDVTDNAMDYWGQGTTVTVSSGGGGSGGGGSEVTLRESGPGLVKPTQTLTLTCTLYGFSLSTSDMGVDWIRQPPGKGLEWLAHIWWDDVKRYNPALKSRLTISKDTSKNQVVLKLTSVDPVDTATYYCARTVSSGYIYYAMDYWGQGTLVTVSS
VL: DIQMTQSPSSLSASVGDRVTITCRASQDISQYLNWYQQKPGKAPKLLIYYTSRLQSGVPSRFSGSGSGTDFTLTISSLQPEDFATYFCQQGNTWPPTFGQGTKLEIKRGGSGGGGSGDIQMTQSPSSLSASVGDRVTISCRASQDIRNYLNWYQQKPGKAPKLLIFYTSKLHSGVPSRFSGSGSGTDYTLTISSLQPEDIATYYCQQGLTPPLTFGGGTKVEIKR

- C-Terminal VD huTNFα Neutralization Assay IC50: 0.186 nM
B2: DVD2789 (bispecific antibody, IgG1)
VH: EVTLRESGPGLVKPTQTLTLTCTLYGFSLSTSDMGVDWIRQPPGKGLEWLAHIWWDDVKRYNPALKSRLTISKDTSKNQVVLKLTSVDPVDTATYYCARTVSSGYIYYAMDYWGQGTLVTVSSASTKGPEVQLVQSGAEVKKPGASVKVSCKASGYTFANYGIIWVRQAPGQGLEWMGWINTYTGKPTYAQKFQGRVTMTTDTSTSTAYMELSSLRSEDTAVYYCARKLFTTMDVTDNAMDYWGQGTTVTVSS
VL: DIQMTQSPSSLSASVGDRVTISCRASQDIRNYLNWYQQKPGKAPKLLIFYTSKLHSGVPSRFSGSGSGTDYTLTISSLQPEDIATYYCQQGLTPPLTFGGGTKVEIKRTVAAPDIQMTQSPSSLSASVGDRVTITCRASQDISQYLNWYQQKPGKAPKLLIYYTSRLQSGVPSRFSGSGSGTDFTLTISSLQPEDFATYFCQQGNTWPPTFGQGTKLEIKR

- C-Terminal VD huTNFα Neutralization Assay IC50: 0.23 nM
B3: DVD2788 (bispecific antibody, IgG1)
VH: EVTLRESGPGLVKPTQTLTLTCTLYGFSLSTSDMGVDWIRQPPGKGLEWLAHIWWDDVKRYNPALKSRLTISKDTSKNQVVLKLTSVDPVDTATYYCARTVSSGYIYYAMDYWGQGTLVTVSSGGGGSGGGGSEVQLVQSGAEVKKPGASVKVSCKASGYTFANYGIIWVRQAPGQGLEWMGWINTYTGKPTYAQKFQGRVTMTTDTSTSTAYMELSSLRSEDTAVYYCARKLFTTMDVTDNAMDYWGQGTTVTVSS
VL: DIQMTQSPSSLSASVGDRVTISCRASQDIRNYLNWYQQKPGKAPKLLIFYTSKLHSGVPSRFSGSGSGTDYTLTISSLQPEDIATYYCQQGLTPPLTFGGGTKVEIKRGGSGGGGSGDIQMTQSPSSLSASVGDRVTITCRASQDISQYLNWYQQKPGKAPKLLIYYTSRLQSGVPSRFSGSGSGTDFTLTISSLQPEDFATYFCQQGNTWPPTFGQGTKLEIKR

- C-Terminal VD huTNFα Neutralization Assay IC50: 0.129 nM
B8: DVD2742 (bispecific antibody, IgG1)
VH: B5 VH with T171E, M186G, S197D, S198T, G201S
VL: B4 VL with R137K, A166T, R167L, K206R

- N-Terminal VD huTNFα Neutralization Assay IC50: 0.006 nM
B11: DVD2784 (bispecific antibody, IgG1)
VH: EVQLVQSGAEVKKPGASVKVSCKASGYTFANYGIIWVRQAPGQGLEWMGWINTYTGKPTYAQKFQGRVTMTTDTSTSTAYMELSSLRSEDTAVYYCARKLFTTMDVTDNAMDYWGQGTTVTVSSASTKGPEVTLRESGPGLVKPTQTLTLTCTLYGFSLSTSDMGVDWIRQPPGKGLEWLAHIWWDDVKRYNPALKSRLTISKDTSKNQVVLKLTSVDPVDTATYYCARTVSSGYIYYAMDYWGQGTLVTVSS
VL: DIQMTQSPSSLSASVGDRVTITCRASQDISQYLNWYQQKPGKAPKLLIYYTSRLQSGVPSRFSGSGSGTDFTLTISSLQPEDFATYFCQQGNTWPPTFGQGTKLEIKRTVAAPDIQMTQSPSSLSASVGDRVTISCRASQDIRNYLNWYQQKPGKAPKLLIFYTSKLHSGVPSRFSGSGSGTDYTLTISSLQPEDIATYYCQQGLTPPLTFGGGTKVEIKR

- N-Terminal VD huTNFα Neutralization Assay IC50: 0.008 nM
B12: DVD2786 (bispecific antibody, IgG1)
VH: B11 VH
VL: DIQMTQSPSSLSASVGDRVTITCRASQDISQYLNWYQQKPGKAPKLLIYYTSRLQSGVPSRFSGSGSGTDFTLTISSLQPEDFATYFCQQGNTWPPTFGQGTKLEIKRTVAAPSVFIFPPDIQMTQSPSSLSASVGDRVTISCRASQDIRNYLNWYQQKPGKAPKLLIFYTSKLHSGVPSRFSGSGSGTDYTLTISSLQPEDIATYYCQQGLTPPLTFGGGTKVEIKR

- N-Terminal VD huTNFα Neutralization Assay IC50: 0.005 nM
B13: DVD2787 (bispecific antibody, IgG1)
VH: EVQLVQSGAEVKKPGASVKVSCKASGYTFANYGIIWVRQAPGQGLEWMGWINTYTGKPTYAQKFQGRVTMTTDTSTSTAYMELSSLRSEDTAVYYCARKLFTTMDVTDNAMDYWGQGTTVTVSSASTKGPSVFPLAPEVTLRESGPGLVKPTQTLTLTCTLYGFSLSTSDMGVDWIRQPPGKGLEWLAHIWWDDVKRYNPALKSRLTISKDTSKNQVVLKLTSVDPVDTATYYCARTVSSGYIYYAMDYWGQGTLVTVSS
VL: B11 VL
